According to article PMC5253704:
pKd: −log10 of the molar value.

What was measured:
Test in all cases: ELISA; one protein (25 nM) or two proteins together (12.5 nM each) coated on wells 16 h at 4 °C in buffer A (20 mM Tris-HCl, 150 mM NaCl, 1 mM ZnCl2, 1 mM CaCl2, 1 mM MgCl2, pH 7.4); soluble protein at 50 to 0.78 nM; detected with antibody and HRP secondary; calculated KD
[1] = molecular target: recombinant murine α3(V)-NTD (N-terminal non-triple helical domain of the α3(V) collagen chain) (murine)
[2] = molecular target: GPC1+FGF2 combined (co-adsorbed on the well) (UniProt P35052)
[3] = molecular target: recombinant FGF2 (UniProt P09038)
[4] = molecular target: recombinant glypican-1 (R&D Systems) (UniProt P35052)

Substance | pKd [1] | pKd [2] | pKd [3] | pKd [4]
recombinant glypican-1 (R&D Systems) (from UniProt P35052 24-530) (natural protein) | 7.47 |  |  | 
recombinant murine α3(V)-NTD (N-terminal non-triple helical domain of the α3(V) collagen chain) (domain or fragment) |  | 7.80 | 7.46 | 7.48
recombinant FGF2 (from UniProt P09038 143-288) (ligand) | 7.44 |  |  | 
